According to publication PMC8691596:

Assays:
[1] = target: cynomolgus monkey FcRn, heterodimer with β2 microglobulin, extracellular domain with C-terminal hexa-His (cynomolgus monkey | not stated) (UniProt Q8SPV9); test: SPR
[2] = target: human FcRn, heterodimer with β2 microglobulin, extracellular domain with C-terminal hexa-His (UniProt P55899); test: SPR
[3] = target: mouse FcRn, heterodimer with β2 microglobulin, extracellular domain with C-terminal hexa-His (mouse | not stated) (UniProt Q61559); test: SPR
Chain of mouse FcRn, heterodimer with β2 microglobulin, extracellular domain with C-terminal hexa-His (mouse | not stated) (Q61559 22-297, chain 1 of 2): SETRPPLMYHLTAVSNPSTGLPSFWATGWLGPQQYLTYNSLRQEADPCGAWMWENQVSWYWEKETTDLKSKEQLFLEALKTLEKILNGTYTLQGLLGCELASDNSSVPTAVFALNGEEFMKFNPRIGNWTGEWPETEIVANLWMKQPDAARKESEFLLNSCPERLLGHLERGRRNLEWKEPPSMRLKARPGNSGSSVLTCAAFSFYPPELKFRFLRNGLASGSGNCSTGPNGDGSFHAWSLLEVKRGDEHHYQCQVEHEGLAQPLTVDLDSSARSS
Chain of mouse FcRn, heterodimer with β2 microglobulin, extracellular domain with C-terminal hexa-His (mouse | not stated) (P01887 21-119, chain 2 of 2, further chain): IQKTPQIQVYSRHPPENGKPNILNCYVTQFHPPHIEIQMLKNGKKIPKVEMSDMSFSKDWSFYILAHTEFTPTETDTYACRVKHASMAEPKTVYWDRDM

[4] = target: human FcγRIIa H131 extracellular domain, C-terminal hexa-His (independently-made panel) (human) (UniProt P12318)
Chain of human FcγRIIa H131 extracellular domain, C-terminal hexa-His (independently-made panel) (human) (P12318 34-217): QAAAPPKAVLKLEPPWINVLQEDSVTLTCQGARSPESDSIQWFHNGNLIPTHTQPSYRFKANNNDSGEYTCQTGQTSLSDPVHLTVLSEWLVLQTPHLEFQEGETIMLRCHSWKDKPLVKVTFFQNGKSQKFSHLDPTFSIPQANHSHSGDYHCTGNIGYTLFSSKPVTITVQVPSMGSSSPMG

Chain of human FcRn, heterodimer with β2 microglobulin, extracellular domain with C-terminal hexa-His (P55899 24-297, chain 1 of 2): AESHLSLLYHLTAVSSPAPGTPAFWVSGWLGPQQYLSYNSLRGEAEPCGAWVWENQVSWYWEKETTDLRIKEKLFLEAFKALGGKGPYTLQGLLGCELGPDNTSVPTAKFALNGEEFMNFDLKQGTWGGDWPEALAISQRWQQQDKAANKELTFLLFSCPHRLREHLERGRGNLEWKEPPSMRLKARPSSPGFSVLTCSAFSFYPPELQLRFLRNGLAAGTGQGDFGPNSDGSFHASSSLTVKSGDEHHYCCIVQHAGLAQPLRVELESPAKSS
Chain of human FcRn, heterodimer with β2 microglobulin, extracellular domain with C-terminal hexa-His (partner, as listed by the source, chain 2 of 2): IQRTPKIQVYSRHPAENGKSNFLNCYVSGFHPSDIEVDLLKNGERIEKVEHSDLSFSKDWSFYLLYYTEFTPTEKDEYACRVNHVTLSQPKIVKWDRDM
Chain of cynomolgus monkey FcRn, heterodimer with β2 microglobulin, extracellular domain with C-terminal hexa-His (cynomolgus monkey | not stated) (Q8SPV9 24-297, chain 1 of 2): as the sequence (P55899 24-297, chain 1 of 2) above, with N39D, E44Q, G99S, S189G, S190N, L217M, S269T counted along it
Chain of cynomolgus monkey FcRn, heterodimer with β2 microglobulin, extracellular domain with C-terminal hexa-His (cynomolgus monkey | not stated) (Q6T672 21-119, chain 2 of 2, further chain): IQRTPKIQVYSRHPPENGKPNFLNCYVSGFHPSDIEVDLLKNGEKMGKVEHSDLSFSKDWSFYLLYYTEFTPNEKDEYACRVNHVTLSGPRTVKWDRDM

Substance | Kd [1] [nM] | Kd [2] [nM] | Kd [3] [nM] | Mean normalised luminescence (% of wild-type reference); Promega Fc effector bioassay, Jurkat NFAT-luciferase cells with the receptor + Raji cells, antibody 10 μg/mL [4] [%]
Remicade (rituximab, wild-type human IgG1) (from UniProt P01857) | 347 | 562 | 71 | 
anti-CD20 (rituximab variable regions) human IgG1 wild type reference (antibody) |  |  |  | 100
